Reference: patent US20060257383A1

Molecular target: active MMP-2 (Calbiochem) (UniProt P08253)
Assay: cell-based or functional assay

Chain of UniProt P08253 (P08253 110-660 limits assumed): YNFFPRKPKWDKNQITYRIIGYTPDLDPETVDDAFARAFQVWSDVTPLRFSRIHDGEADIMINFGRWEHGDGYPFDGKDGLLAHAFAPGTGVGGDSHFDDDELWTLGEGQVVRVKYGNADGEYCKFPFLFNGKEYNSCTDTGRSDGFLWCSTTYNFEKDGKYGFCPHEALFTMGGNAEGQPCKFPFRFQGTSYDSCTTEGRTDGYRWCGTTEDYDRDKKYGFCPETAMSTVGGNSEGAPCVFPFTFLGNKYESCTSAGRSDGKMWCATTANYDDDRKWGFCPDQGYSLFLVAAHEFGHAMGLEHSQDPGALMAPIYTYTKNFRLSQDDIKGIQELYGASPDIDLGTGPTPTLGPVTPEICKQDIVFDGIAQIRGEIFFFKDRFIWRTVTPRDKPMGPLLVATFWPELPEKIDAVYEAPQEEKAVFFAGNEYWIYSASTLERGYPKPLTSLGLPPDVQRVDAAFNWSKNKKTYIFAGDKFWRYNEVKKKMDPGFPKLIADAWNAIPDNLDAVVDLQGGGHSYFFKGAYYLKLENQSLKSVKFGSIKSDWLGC

inhibition in MMP-2 protease activity compared to untransfected NIKS (EnzChek Gelatinase/Collagenase Assay, DQ gelatin): < 40%
Substance: TIMP-1-HA (exogenous human TIMP-1 with a C-terminal HA epitope tag, secreted by stable NIKS clone INV TIMP-1-HA:28) (from UniProt P01033 24-207)
